Measured values published in patent publication US20140336126A1.

The substances below were run against GS-TAP-tagged Optn (human) (UniProt Q96CV9) (assay: TAP of GS-tagged Optn from HEK-293 cells, LC-MSMS).
Sequence of GS-TAP-tagged Optn (human) (Q96CV9 whole entry E322K): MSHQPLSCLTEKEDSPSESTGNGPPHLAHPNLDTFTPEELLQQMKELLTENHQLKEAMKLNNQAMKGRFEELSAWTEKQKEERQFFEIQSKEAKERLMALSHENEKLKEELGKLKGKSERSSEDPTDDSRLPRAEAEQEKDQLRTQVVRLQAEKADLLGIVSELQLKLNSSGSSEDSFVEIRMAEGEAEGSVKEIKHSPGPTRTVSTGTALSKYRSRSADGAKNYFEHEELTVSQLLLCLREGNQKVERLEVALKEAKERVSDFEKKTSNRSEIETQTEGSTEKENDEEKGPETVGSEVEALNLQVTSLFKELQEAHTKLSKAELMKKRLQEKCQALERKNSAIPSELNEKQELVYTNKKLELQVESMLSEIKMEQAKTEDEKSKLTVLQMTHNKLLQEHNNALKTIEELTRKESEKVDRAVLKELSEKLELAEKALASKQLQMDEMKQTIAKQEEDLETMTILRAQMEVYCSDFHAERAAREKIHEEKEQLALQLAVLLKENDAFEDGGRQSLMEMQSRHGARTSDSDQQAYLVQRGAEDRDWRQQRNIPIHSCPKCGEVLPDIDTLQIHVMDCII

Sequence of [..] LIGHT CHAIN 2, [..]. (Q96FJ2 whole entry): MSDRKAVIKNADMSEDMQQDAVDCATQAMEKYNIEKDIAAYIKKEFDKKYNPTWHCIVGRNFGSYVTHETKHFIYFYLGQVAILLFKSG
Sequence of MYOSIN, LIGHT CHAIN 6, ALKALI, SMOOTH MUSCLE AND NON-MUSCLE ISOFORM 1. (P60660 2-151): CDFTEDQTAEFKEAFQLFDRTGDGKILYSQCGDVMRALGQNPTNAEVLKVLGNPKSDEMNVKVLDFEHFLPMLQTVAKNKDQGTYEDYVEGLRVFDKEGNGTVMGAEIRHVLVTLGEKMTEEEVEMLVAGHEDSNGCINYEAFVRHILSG

Substance	sequence coverage	unique peptide counts
ISOFORM SNAP-23A OF SYNAPTOSOMAL-ASSOCIATED PROTEIN 23. (from UniProt O00161 1-211)	0.11	2
HEAT SHOCK 70 KDA PROTEIN 1L. (from UniProt P34931 1-641)	0.12	7
MYOSIN REGULATORY LIGHT CHAIN. (from UniProt O14950 2-172)	0.19	3
TROPOMYOSIN 4. (from UniProt P67936 2-248)	0.18	6
type 1 protein phosphatase catalytic subunit PP1β (from UniProt P62140 1-327) (enzyme)	0.2	6
DESMOGLEIN 2 PREPROPROTEIN. (from UniProt Q14126 50-1118)	0.02	2
ISOFORM 1 OF MYOSIN IB. (from UniProt O43795 1-1136)	0.03	3
MYOSIN, LIGHT CHAIN 6, ALKALI, SMOOTH MUSCLE AND NON-MUSCLE ISOFORM 1.	0.28	5
DYNEIN LIGHT CHAIN 1, CYTOPLASMIC. (from UniProt P63167 1-89)	0.64	5
TROPOMYOSIN 1 ALPHA CHAIN ISOFORM 7. (from UniProt P09493 1-284)	0.19	5
ISOFORM 1 OF MYOSIN PHOSPHATASE RHO-… PROTEIN. (from UniProt Q6WCQ1 2-1025)	0.21	17
ISOFORM 1 OF MYOSIN-10. (from UniProt P35580 1-1976)	0.04	7
ALPHA-ACTININ-4. (from UniProt O43707 1-911)	0.02	2
RAS-RELATED PROTEIN RAB-35. (from UniProt Q15286 1-201)	0.16	3
285 KDA PROTEIN. (from UniProt Q13813 1-2472)	0.03	7

The remaining lines, values ahead:

sequence coverage	unique peptide counts	Substance
0.01	2	ISOFORM LONG OF SPECTRIN BETA CHAIN, BRAIN 1. (from UniProt Q01082 2-2364)
0.64	5	[..] LIGHT CHAIN 2, [..]. (from UniProt Q96FJ2 1-89)
0.05	10	FILAMIN 1. (from UniProt P21333 2-2647)
0.06	2	GUANINE NUCLEOTIDE-BINDING PROTEIN G(I)/G(S)/G(T) SUBUNIT BETA 2. (from UniProt P62879 2-340)
0.09	2	PRKC APOPTOSIS WT1 REGULATOR PROTEIN. (from UniProt Q96IZ0 1-340)
0.25	17	HEAT SHOCK 70 KDA PROTEIN 1. (from UniProt P0DMV9 2-641)
0.12	8	HEAT SHOCK 70 KDA PROTEIN 6. (from UniProt P17066 1-643)
0.09	5	STRESS-70 PROTEIN, MITOCHONDRIAL PRECURSOR. (from UniProt P38646 47-679)
0.11	2	PEROX1REDOXIN-1. (from UniProt Q06830 2-199) (enzyme)
0.24	14	ISOFORM 1 OF HEAT SHOCK COGNATE 71 KDA PROTEIN. (from UniProt P11142 2-646)
0.12	11	ISOFORM 2 OF ANKYCORBIN. (from UniProt Q9P0K7 1-983)
0.25	13	CORONIN-1C. (from UniProt Q9ULV4 1-474)
0.19	6	GUANINE NUCLEOTIDE-BINDING PROTEIN G. (from UniProt P08754 2-354)
0.06	10	MYOSIN-9. (from UniProt P35579 2-1960)
0.06	3	ELONGATION FACTOR 1-ALPHA 2. (from UniProt Q05639 2-463)
0.15	5	GALPHAI2 PROTEIN. (from UniProt P04899 2-355)
0.22	5	COMPLEMENT COMPONENT 1 Q SUBCOMPONENT-BINDING PROTEIN, MITOCHONDRIAL PRECURSOR. (from UniProt Q07021 74-282)
